Data: US20200181677A1 (REGENTS OF THE UNIVERSITY OF MINNESOTA, published 2020)
Ends that are not written are not given here.

These binders were tested against T1, human PKCα catalytic domain (human, UniProt P17252 336-672, limits assumed) (assay: time-resolved FRET (TCSPC) of eGFP/mCherry peptide-catalytic domain sensor).
T1 construct: domain: catalytic domain; For activity assays the catalytic domain was isolated by TEV cleavage; also called catalytic domain of PKCα; PKC catalytic domain

Binder | Mol Fraction Bound | Mol Fraction Unbound
FKLKRKGAFKKFA (also: fused to PKCα catalytic domain via 10 nm ER/K linker in FRET sensor, Ala form in the FRET sensor, tethered to the PKCα catalytic domain by the 10 nm ER/K FRET linker; also called p11) [peptide #11 (Optimized PKCβ Sub.), alanine-substituted, in PKCα FRET sensor] | 0.15 mol fraction | 0.85 mol fraction
RRRRAIIFI (peptide, not shown: large carriers; small tags and cut ends, also called p10) [peptide #10 (Optimized PKA Sub.), alanine-substituted, in PKCα FRET sensor] | 0.16 mol fraction | 0.84 mol fraction
ASQKRPAQRH (peptide, not shown: large carriers; small tags and cut ends, also called p6) [peptide #6 (Myelin Basic Protein), alanine-substituted, in PKCα FRET sensor] | 0.08 mol fraction | 0.92 mol fraction
